{"source": "paper PMC9223101", "about": "“Transcription Regulation of Cell Cycle Regulatory Genes Mediated by NtrX to Affect Sinorhizobium meliloti Cell Division”", "molecular_target": "T1, NtrX D53E (His-NtrXD53E) (Sinorhizobium meliloti 1021, UniProt Q92Q87 1-454, D53E)", "T1 sequence": "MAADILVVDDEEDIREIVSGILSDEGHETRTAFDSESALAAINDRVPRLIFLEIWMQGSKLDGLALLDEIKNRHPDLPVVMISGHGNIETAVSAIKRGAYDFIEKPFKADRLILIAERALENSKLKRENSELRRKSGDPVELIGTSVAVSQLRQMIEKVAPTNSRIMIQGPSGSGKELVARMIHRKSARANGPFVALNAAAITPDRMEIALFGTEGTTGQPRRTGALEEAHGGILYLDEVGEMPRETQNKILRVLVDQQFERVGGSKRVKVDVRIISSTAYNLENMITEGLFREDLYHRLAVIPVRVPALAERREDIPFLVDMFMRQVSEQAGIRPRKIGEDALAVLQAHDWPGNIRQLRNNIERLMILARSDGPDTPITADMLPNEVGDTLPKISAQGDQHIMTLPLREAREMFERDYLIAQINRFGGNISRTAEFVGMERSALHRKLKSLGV", "assay": "EMSA; 5 mM Mg2+; almost no complex; EMSA, 20 uL: 3, 6, 15 ng NtrX, 2 nM probe (2 or 40 nM in Methods), 1x binding buffer, 5 mM MgCl2, 50 ng/uL poly(dI-dC), 0.05% NP-40, 1% glycerol, 30 min at 28 C; pH and salt of binding buffer not stated (phosphorylation in 50 mM Tris-HCl pH 7.6, 50 mM KCl, 20 mM MgCl2 nominal 1x)", "details": "protein: recombinant; tags: His (pET28b); chain copies: 2; label: biotin; blunt", "data": [{"binder": "ntrY promoter probe (dsDNA) DNA 1: GCGCTTGACTGAGATGCAACACCGTTGCATTTTCGCCACAATGCGTTGCTTGAACCTCGCATAAGCGTCGATTCGCCGGC DNA 2: GCCGGCGAATCGACGCTTATGCGAGGTTCAAGCAACGCATTGTGGCGAAAATGCAACGGTGTTGCATCTCAGTCAAGCGC", "values": [{"measurement": "binding result", "result": "no binding"}]}]}
